Measured values taken from US20150258192A1, “COMPOSITIONS AND METHODS FOR PREVENTING OR TREATING CHRONIC LUNG ALLOGRAFT DYSFUNCTION (CLAD) AND IDIOPATHIC PULMONARY FIBROSIS (IPF)” (priority 2014, published 2015).
No end group written: not given here.

Assays:
Test in all cases: Kinase Profiling Assay
Type in all cases: biochemical
Conditions in all cases: peptide 100 μM
BrSK2(h) = target: T1, BrSK2(h) (Homo sapiens, UniProt Q8IWQ3)
T1 sequence (Q8IWQ3 1-736): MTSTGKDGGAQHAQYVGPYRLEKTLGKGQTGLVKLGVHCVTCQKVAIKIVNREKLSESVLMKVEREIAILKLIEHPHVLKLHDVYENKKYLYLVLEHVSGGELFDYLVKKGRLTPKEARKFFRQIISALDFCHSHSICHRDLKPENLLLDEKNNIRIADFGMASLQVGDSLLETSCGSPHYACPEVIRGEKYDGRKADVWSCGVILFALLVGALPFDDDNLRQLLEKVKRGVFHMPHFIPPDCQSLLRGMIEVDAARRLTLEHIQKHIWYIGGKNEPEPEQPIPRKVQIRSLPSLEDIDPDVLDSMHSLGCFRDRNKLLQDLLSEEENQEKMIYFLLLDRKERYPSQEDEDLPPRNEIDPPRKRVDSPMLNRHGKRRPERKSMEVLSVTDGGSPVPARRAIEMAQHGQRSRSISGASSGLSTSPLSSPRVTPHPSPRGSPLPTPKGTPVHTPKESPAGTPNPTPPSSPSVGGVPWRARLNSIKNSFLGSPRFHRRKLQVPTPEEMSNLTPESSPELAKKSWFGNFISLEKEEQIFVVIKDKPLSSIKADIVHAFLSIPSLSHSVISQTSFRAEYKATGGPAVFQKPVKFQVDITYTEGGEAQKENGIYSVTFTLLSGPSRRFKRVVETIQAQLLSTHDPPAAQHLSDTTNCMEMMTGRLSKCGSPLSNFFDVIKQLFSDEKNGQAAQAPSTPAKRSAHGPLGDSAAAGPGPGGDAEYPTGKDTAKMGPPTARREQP
Method in brief: (§1)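 In this 266-kinase specificity panel, every measurement was duplicated. Transfer of labeled phosphate from ATP to a cationic substrate was quantified after the substrate adhered to an anionic filter membrane and was scintillation-counted, then related to a full-activity control.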

CaMKI(h) = CaMKI(h) (Homo sapiens, UniProt Q14012)
Method in brief: as §1

CaMKIIβ(h) = CaMKIIβ(h) (Homo sapiens, UniProt Q13554)
Chain of CaMKIIβ(h) (Q13554 whole entry): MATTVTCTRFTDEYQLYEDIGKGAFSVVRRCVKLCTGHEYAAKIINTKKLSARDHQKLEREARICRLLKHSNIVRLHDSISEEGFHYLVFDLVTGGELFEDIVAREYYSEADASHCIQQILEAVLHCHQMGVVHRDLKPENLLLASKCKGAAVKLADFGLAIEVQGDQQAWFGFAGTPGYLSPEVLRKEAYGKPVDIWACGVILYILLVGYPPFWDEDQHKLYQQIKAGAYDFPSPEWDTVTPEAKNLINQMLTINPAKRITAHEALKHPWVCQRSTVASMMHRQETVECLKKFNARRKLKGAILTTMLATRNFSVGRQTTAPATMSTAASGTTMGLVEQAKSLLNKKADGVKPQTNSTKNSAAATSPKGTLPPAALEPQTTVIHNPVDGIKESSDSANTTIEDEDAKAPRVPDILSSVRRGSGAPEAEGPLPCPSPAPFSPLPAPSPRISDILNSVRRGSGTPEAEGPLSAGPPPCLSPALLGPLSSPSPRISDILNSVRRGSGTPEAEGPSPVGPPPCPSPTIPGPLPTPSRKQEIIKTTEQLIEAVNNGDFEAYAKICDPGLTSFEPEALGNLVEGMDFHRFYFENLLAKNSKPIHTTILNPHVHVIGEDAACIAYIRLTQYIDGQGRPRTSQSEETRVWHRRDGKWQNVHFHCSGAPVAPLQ
Method in brief: as §1

EphA7(h) = EphA7(h) (Homo sapiens, UniProt Q15375)
Chain of EphA7(h) (Q15375 28-998): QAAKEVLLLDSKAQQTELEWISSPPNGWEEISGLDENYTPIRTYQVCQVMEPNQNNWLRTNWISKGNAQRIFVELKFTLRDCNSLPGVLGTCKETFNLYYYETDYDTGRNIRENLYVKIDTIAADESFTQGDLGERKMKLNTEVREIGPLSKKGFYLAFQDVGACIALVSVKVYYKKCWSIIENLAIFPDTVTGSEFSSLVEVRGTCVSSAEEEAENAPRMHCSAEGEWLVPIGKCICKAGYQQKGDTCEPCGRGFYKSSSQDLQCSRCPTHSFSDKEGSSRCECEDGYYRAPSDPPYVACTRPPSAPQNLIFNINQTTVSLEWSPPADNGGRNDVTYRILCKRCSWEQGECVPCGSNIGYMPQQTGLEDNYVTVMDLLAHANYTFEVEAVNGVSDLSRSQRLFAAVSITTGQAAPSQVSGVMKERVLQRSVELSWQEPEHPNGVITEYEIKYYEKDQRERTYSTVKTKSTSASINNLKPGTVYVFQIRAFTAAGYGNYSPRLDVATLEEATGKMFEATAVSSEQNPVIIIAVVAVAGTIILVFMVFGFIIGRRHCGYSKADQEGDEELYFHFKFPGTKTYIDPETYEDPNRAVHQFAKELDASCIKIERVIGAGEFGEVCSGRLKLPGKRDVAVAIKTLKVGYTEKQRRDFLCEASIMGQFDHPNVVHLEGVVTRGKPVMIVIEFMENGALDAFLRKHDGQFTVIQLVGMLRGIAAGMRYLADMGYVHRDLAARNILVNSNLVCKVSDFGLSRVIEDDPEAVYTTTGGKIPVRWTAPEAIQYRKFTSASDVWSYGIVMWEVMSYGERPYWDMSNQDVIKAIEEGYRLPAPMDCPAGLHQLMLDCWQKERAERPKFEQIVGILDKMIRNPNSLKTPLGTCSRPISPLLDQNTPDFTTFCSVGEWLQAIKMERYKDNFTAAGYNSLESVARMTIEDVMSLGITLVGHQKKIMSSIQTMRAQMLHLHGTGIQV
Method in brief: as §1

Fms(h) = Fms(h) (Homo sapiens, UniProt P07333)
Method in brief: as §1

GRK6(h) = target: T2, GRK6(h) (Homo sapiens, UniProt P43250)
T2 construct: purchased Millipore
T2 sequence (P43250 whole entry): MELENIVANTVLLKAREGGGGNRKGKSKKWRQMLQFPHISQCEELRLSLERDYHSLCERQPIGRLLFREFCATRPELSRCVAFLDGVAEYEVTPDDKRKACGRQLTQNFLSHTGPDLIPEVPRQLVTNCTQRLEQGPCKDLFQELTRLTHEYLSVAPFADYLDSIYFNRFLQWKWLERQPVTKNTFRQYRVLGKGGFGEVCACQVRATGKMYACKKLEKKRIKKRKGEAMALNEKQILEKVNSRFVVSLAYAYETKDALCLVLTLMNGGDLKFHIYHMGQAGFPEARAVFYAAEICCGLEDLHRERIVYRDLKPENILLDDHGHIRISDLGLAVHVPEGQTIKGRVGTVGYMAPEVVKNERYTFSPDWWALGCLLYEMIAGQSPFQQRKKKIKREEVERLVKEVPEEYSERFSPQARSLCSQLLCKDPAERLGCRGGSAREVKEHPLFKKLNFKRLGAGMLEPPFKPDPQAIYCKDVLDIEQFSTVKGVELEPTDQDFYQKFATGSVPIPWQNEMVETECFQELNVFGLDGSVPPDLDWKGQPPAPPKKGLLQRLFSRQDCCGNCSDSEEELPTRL
Method in brief: as §1

NEK7(h) = target: T3, NEK7(h) (Homo sapiens, UniProt Q8TDX7)
T3 construct: purchased Millipore
T3 sequence (Q8TDX7 whole entry): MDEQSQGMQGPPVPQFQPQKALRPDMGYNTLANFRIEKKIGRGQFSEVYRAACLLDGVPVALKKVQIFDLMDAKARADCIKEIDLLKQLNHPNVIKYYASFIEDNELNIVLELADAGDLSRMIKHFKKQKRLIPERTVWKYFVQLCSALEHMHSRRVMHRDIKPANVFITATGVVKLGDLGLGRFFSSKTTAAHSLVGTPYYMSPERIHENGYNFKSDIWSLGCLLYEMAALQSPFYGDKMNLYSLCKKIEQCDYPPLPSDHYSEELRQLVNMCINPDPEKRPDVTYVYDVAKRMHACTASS
Method in brief: as §1

PKBβ(h) = PKBβ(h) (Homo sapiens, UniProt P31751)
Chain of PKBβ(h) (P31751 whole entry): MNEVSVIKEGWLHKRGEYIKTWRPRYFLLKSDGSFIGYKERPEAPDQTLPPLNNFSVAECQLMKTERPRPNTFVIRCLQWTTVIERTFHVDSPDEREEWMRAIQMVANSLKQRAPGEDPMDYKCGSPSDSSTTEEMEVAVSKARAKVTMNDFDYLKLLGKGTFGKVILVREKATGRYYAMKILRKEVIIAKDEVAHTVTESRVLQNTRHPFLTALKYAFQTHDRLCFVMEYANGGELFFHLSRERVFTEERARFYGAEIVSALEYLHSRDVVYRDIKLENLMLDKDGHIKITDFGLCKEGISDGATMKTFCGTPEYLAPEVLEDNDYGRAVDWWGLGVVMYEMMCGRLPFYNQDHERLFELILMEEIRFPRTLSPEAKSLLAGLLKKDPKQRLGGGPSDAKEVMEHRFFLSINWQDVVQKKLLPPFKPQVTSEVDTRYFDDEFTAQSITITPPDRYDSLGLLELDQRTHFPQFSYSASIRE
Method in brief: as §1

PKG1α(h) = target: T4, PKG1α(h) (Homo sapiens, UniProt Q13976)
T4 sequence (Q13976 1-671): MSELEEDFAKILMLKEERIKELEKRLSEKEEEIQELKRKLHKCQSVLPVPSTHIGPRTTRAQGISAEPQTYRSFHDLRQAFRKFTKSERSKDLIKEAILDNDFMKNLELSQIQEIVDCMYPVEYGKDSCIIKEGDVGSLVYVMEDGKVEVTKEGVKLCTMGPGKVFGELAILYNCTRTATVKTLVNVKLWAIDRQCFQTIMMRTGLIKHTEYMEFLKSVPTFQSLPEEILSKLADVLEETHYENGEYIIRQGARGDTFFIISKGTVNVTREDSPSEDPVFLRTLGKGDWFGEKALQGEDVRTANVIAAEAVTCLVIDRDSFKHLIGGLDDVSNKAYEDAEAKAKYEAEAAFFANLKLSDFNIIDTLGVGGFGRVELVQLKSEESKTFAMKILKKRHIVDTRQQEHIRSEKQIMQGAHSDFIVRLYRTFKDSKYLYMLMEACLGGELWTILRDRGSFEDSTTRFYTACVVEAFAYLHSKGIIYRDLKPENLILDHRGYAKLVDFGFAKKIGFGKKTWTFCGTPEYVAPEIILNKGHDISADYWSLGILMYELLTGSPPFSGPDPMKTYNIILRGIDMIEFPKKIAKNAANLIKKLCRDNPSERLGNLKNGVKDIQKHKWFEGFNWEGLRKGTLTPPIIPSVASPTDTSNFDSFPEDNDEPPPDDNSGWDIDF
Method in brief: as §1

TSSK1(h) = target: T5, TSSK1(h) (Homo sapiens, UniProt Q9BXA7)
T5 sequence (Q9BXA7 1-367): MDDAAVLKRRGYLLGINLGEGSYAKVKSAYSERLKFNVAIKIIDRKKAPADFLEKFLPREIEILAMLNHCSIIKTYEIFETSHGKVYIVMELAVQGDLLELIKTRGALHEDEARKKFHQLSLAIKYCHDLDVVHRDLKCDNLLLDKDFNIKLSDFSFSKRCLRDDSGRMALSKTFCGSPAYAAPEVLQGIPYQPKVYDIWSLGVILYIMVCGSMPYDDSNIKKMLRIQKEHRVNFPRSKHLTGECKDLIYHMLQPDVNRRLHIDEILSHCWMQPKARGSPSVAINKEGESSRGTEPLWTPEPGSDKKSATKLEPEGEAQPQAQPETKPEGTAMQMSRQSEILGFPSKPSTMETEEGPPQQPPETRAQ
Method in brief: as §1

ZIPK(h) = ZIPK(h) (Homo sapiens, UniProt O43293)
Chain of ZIPK(h) (O43293 whole entry): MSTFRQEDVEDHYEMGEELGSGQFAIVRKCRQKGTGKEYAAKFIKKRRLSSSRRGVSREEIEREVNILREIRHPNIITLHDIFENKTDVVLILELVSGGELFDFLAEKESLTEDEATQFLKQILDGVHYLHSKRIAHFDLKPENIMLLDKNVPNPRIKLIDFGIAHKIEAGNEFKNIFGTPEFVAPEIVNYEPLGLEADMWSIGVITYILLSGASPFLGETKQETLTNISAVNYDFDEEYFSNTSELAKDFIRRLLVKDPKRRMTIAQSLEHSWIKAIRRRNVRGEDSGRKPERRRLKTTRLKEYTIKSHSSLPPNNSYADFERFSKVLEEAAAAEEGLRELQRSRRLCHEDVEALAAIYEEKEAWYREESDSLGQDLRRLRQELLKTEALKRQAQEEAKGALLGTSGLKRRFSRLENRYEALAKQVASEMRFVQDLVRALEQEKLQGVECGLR
Method in brief: as §1

FGFR3(h) = FGFR3(h) (Homo sapiens, UniProt P22607)
Chain of FGFR3(h) (P22607 23-806): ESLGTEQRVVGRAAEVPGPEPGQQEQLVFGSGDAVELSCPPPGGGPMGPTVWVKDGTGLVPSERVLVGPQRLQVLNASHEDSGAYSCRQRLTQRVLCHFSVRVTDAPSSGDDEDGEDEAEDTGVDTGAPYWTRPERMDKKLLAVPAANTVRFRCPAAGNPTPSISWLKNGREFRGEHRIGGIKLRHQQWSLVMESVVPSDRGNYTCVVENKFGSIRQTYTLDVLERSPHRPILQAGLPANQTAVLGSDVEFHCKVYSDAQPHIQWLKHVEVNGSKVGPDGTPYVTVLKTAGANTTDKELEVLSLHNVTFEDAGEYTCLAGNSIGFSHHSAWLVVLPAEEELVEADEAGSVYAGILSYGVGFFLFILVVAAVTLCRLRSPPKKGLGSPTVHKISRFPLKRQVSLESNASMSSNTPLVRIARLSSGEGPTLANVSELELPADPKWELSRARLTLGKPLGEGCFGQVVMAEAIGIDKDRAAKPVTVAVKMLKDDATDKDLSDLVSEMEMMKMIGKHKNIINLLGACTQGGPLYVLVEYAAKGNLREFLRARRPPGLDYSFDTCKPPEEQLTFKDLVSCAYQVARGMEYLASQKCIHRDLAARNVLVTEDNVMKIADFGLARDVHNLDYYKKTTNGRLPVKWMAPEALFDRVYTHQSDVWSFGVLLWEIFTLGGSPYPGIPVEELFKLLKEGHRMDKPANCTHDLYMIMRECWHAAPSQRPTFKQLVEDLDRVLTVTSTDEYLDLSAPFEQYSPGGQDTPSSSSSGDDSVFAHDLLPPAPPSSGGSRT
Method in brief: as §1

Sequence	% activity (BrSK2(h)) [%]	% activity (CaMKI(h)) [%]	% activity (CaMKIIβ(h)) [%]	% activity (EphA7(h)) [%]	% activity (Fms(h)) [%]	% activity (GRK6(h)) [%]	% activity (NEK7(h)) [%]	% activity (PKBβ(h)) [%]	% activity (PKG1α(h)) [%]	% activity (TSSK1(h)) [%]	% activity (ZIPK(h)) [%]	% activity (FGFR3(h)) [%]
FAKLAARLYRKALARQLGVAA [MMI-0300]	83	1	2	159	45	147	84	84	64	79	28	–
HRRIKAWLKKIKALARQLGVAA (Mammal) [MMI-0500]	84	-1	3	189	14	174	89	21	25	46	1	10
KAFAKLAARLYRKALARQLGVAA [MMI-0400]	86	0	11	222	37	141	87	98	58	79	13	0
YARAAARQARAKALARQLGVAA [MMI-0100]	129	–	–	193	89	131	–	–	82	99	–	73
YARAAARQARAKALNRQLGVA (Mammal) [MMI-0200]	–	21	53	220	92	132	96	250	70	98	67	208
